Data published in patent US10688077B2, “Inflammasome activation in myelodysplastic syndromes” (H. Lee Moffitt Cancer Center and Research Institute, Inc., priority 2015, dated 2020).

How the values were obtained:
lower-risk MDS BM-MNC = test: qPCR of pyroptosis-related gene expression in lower-risk MDS BM-MNC; type: cell-based, human; settings: 24 hours, versus autologous BM plasma alone, n=5
Experimental: PCR RNA was isolated from BM-MNC using the RNeasy Mini Kit (Qiagen). cDNA was produced using the iScript cDNA Synthesis Kit (Bio-Rad). Sequences for primers can be found in Table 1. GAPDH mRNA was used for transcript normalization. cDNA was amplified using the iQ SYBR Green Supermix and the CFX96 Real-Time PCR Detection System (Bio-Rad). PCR conditions were as follows: 10 minutes at 95° C., followed by 40 cycles of amplification (15 seconds at 95° C. and 1 minute at 60° C.). Relative gene expression was calculated using the […] method.

MDS BM-MNC = test: Pyroptosis flow cytometry panel, MDS BM-MNC incubated with autologous BM plasma; type: cell-based, human
Experimental: For human samples, treated and untreated BM-MNC were incubated overnight in IMDM, supplemented with 10% autologous BM plasma. Subsequently, cells were harvested, washed twice in 1×PBS, and stained with LIVE/DEAD Violet fluorescent reactive dye according to the manufacturer's protocol (Life Technologies). Cells were resuspended in 1×PBS with 2% BSA, and incubated at room temperature for 15 minutes to block non-specific binding. After washing, cells were stained with 30×FAM-FLICA® Caspase-1 and Caspase-3/7 solution at a ratio of 1:30 for 2 hours at 37° C. Cells were washed and stained for cell surface receptors using CD38:PE-CF594, CD33:BV711, CD34:APC (BD Biosciences), and CD71:PE-Cyanine7 (eBioscience). All antibodies were diluted 1:20, and cells were stained for 30 minutes at 4° C. Cells were washed, resuspended in 1× binding buffer, and stained with Annexin-V:Cy5.5 at a dilution of 1:20 for 15 minutes at room temperature (BD Biosciences). 1× binding buffer was added to a final volume of 400 μL. Sample acquisitions were carried out using a BD LSR II flow cytometer and FACSDiva software (BD Biosciences). Calibration of the flow cytometer was carried out prior to each experiment using Rainbow Mid-Range Fluorescent Particles (BD Biosciences). To establish fluorescence compensation settings, ArC Amine Reactive Compensation Beads were used for LIVE/DEAD Violet staining (Life Technologies), and BD CompBead Plus Anti-Mouse Ig κ/Negative Control (BSA) Compensation Plus Particles were used for surface receptor conjugates (BD Biosciences). Data were analyzed using FlowJo 9.7.5 software (FlowJo, LLC, Ashland, Oreg.).

B1: CD33-IgG1: S100A9 high-affinity chimeric (CD33-IgG1) decoy receptor (protein)
chain: DPNFWLQVQESVTVQEGLCVLVPCTFFHPIPYYDKNSPVHGYWFREGAIISRDSPVATNKLDQEVQEETQGRFRLLGDPSRNNCSLSIVDARRRDNGSYFFRMERGSTKYSYKSPQLSVHVTDLTHRPKILIPGTLEPGHSKNLTCSVSWACEQGTPPIFSWLSAAPTSLGPRTTHSSVLIITPRPQDHGTNLTCQVKFAGAGVTTERTIQLNVTYVPQNPTTGIFPGDGSGKQETRAGVVH
modifications: left off: a dimerising Fc or GST
lower-risk MDS BM-MNC
  CASP1 expression: reduced
  CASP3 expression: markedly reduced
  IL-1β expression: reduced
  IL-18 expression: reduced
  NLRP3 expression: reduced
MDS BM-MNC; CD33+ immature myeloids, 0.5 μg CD33-IgG1 or 0.1 μM IRAK4 inhibitor, 24 hours, autologous BM plasma, n=4
  reduction of the fraction of pyroptotic cells, maximum lineage-specific change, CD33+ cells: 68%
MDS BM-MNC; CD71+ erythroids, 0.5 μg CD33-IgG1 or 0.1 μM IRAK4 inhibitor, 24 hours, autologous BM plasma, n=4
  reduction of the fraction of pyroptotic cells, maximum lineage-specific change, CD71+ cells: 64%
MDS BM-MNC; MDS BM-MNC with autologous BM plasma (FIG. 20)
  fraction of pyroptotic cells across all lineages studied: marked reduction
MDS BM-MNC; progenitor cells (CD34+CD38+), 0.5 μg CD33-IgG1 or 0.1 μM IRAK4 inhibitor, 24 hours, autologous BM plasma, n=4
  reduction of the fraction of pyroptotic cells, maximum lineage-specific change, progenitor cells: 23%
MDS BM-MNC; short-term treatment
  MDSC fraction: significantly reduced
MDS BM-MNC; stem cells (CD34+CD38-), 0.5 μg CD33-IgG1 or 0.1 μM IRAK4 inhibitor, 24 hours, autologous BM plasma, n=4
  reduction of the fraction of pyroptotic cells, maximum lineage-specific change, stem cells: 44%
